Consider two molecules from publication PMC5052685, “The RNA-binding protein vigilin regulates VLDL secretion through modulation of Apob mRNA translation”.

The target of the data set is VIGILIN (Homo sapiens, UniProt Q00341 1-1268). Put plainly: EMSA; 10 nM 32P-RNA, 0-10 uM protein, 250 mM KCl, 5 mM MgCl2, 25 mM Tris-HCl pH 7.5, 10% glycerol, 1 mg/ml acetylated BSA, 1.5 uM yeast tRNA, 25 C, 5 min; 1.2% agarose gel, 1x TBE. As to conditions: protein: recombinant; tags: His6 (expressed from pETM30-vigilin-His6); label: 5' 32P. Background: In EMSA bound probe runs differently from free probe, usually more slowly.
VIGILIN, sequence (Q00341 whole entry): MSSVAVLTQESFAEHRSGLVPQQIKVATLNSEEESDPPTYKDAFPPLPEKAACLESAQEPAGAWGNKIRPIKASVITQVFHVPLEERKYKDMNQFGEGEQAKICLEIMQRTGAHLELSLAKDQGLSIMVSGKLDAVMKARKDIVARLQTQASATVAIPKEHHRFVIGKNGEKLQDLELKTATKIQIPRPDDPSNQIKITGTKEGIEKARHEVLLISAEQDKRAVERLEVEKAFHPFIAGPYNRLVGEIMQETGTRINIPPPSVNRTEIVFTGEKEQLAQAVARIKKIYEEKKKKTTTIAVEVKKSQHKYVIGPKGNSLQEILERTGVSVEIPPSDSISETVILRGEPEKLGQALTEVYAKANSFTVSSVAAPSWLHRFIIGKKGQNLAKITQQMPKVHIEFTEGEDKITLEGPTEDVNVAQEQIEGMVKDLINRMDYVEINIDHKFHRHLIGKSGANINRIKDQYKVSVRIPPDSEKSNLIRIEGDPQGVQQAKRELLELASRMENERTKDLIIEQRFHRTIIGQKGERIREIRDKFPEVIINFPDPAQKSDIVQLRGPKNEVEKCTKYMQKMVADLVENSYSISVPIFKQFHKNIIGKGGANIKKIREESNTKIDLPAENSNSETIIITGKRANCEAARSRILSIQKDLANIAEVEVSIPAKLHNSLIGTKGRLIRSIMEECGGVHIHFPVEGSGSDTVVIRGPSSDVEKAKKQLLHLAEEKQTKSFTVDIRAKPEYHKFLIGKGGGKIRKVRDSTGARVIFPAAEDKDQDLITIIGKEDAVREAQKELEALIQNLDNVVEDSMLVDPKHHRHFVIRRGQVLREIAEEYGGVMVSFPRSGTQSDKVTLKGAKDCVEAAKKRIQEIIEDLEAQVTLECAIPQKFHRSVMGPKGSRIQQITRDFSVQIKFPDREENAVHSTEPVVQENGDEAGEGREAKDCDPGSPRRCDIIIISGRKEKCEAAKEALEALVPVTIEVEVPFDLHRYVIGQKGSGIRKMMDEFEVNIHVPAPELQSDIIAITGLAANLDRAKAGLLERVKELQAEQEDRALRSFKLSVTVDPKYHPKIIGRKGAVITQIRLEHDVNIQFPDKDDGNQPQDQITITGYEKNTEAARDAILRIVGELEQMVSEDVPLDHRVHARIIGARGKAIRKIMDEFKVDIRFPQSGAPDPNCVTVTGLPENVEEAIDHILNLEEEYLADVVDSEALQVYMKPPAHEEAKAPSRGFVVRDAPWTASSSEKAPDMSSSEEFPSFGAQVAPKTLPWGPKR

For GAUUUAACUCCACCUACUUCCAGGGC (ssRNA) [Apob binding site WT], the binding result is listed as “binds”.

CUACCUCAAUAAUCAUCUUCUUCAGG (ssRNA) [fetuin-A (Ahsg) binding site WT]: the binding result is “binds”.
